# Results as given in the supplement of paper PMC9732359.
# ± gives the uncertainty stated by the source.
# Experiment: protein stability index of a GFP-peptide fusion (yeast GPS) (PSI 1-4); higher = more stable; sorted into four equal gates, so the index is relative within each strain
# How it was run: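 Sequencing reads from sorted gates were used to score each peptide. The library consisted of tiled 17-residue yeast protein peptides fused downstream of GFP on a Cherry-expressing plasmid, pooled and carried in yeast. Mid-log cultures in leucine-free medium were split into four equal gates by GFP/Cherry ratio, and each gate's plasmids were PCR-amplified and Illumina-sequenced. The protein stability index adds up, over all gates, the read frequency multiplied by the gate number.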
sequence,measurement,setting,value
MFKLGNFESPVLKELSR [YLR018C/POM34],protein stability index,pdr5∆,3.37 ± 0.23
same,protein stability index,san1∆,2.85 ± 0.15
same,protein stability index,ubr1∆,2.66 ± 0.16
MFLTRSEYDRGVSTFSP [PUP2],protein stability index,doa10∆,3.58 ± 0.21
same,protein stability index,ubr1∆,3.34 ± 0.11
MFNPLHESYCLPMDTNL [YMR129W/POM152],protein stability index,doa10∆,2.39 ± 0.059
same,protein stability index,pdr5∆,2.83 ± 0.055
same,protein stability index,san1∆,2.75 ± 0.058
same,protein stability index,ubr1∆,2.36 ± 0.056
MFQSQSQLQPQPQPQPQ [YDL088C/ASM4],protein stability index,doa10∆,2.48 ± 0.056
same,protein stability index,pdr5∆,2.49 ± 0.048
same,protein stability index,san1∆,2.29 ± 0.068
same,protein stability index,ubr1∆,2.99 ± 0.04
MGDNSQLDFTEFDEQYG [SNF2],protein stability index,doa10∆,3.31 ± 0.057
same,protein stability index,pdr5∆,3.15 ± 0.067
same,protein stability index,san1∆,3.31 ± 0.052
same,protein stability index,ubr1∆,3.14 ± 0.045
MGPLYQNFAEFMTKLLE [IRR1],protein stability index,doa10∆,2.27 ± 0.11
same,protein stability index,pdr5∆,1.82 ± 0.11
same,protein stability index,san1∆,3.03 ± 0.13
same,protein stability index,ubr1∆,2.04 ± 0.15
MHALKNRSEQNGQEQQG [RGR1],protein stability index,pdr5∆,3.06 ± 0.21
same,protein stability index,ubr1∆,3.06 ± 0.21
MILKLVCQVTKFGLLLQ [ECM29],protein stability index,doa10∆,2.12 ± 0.066
same,protein stability index,pdr5∆,2.28 ± 0.078
same,protein stability index,san1∆,2.46 ± 0.072
same,protein stability index,ubr1∆,1.61 ± 0.063
MIQKVMEYLKSSKSLDL [RPN5],protein stability index,doa10∆,2.6 ± 0.051
same,protein stability index,pdr5∆,1.55 ± 0.039
same,protein stability index,san1∆,2.3 ± 0.057
same,protein stability index,ubr1∆,2.46 ± 0.05
MKDKEINIQKYNNNTIR [CSI1],protein stability index,doa10∆,2.42 ± 0.22
same,protein stability index,pdr5∆,2.4 ± 0.15
same,protein stability index,ubr1∆,2.52 ± 0.1
MKEDGLSFVDIVLSKAA [SIR4],protein stability index,doa10∆,1.88 ± 0.1
same,protein stability index,pdr5∆,2.8 ± 0.07
same,protein stability index,san1∆,2.74 ± 0.12
same,protein stability index,ubr1∆,2.22 ± 0.053
MKHLGRSEGNPVIGVFQ [FAS2],protein stability index,pdr5∆,2.78 ± 0.08
same,protein stability index,san1∆,2.9 ± 0.094
same,protein stability index,ubr1∆,3.01 ± 0.093
MKLKLMIVYYKDAISFI [YCS4],protein stability index,doa10∆,1.82 ± 0.053
same,protein stability index,pdr5∆,1.49 ± 0.049
same,protein stability index,san1∆,1.8 ± 0.091
same,protein stability index,ubr1∆,1.73 ± 0.042
MKLVPSIPPATIETFNE [RPB5],protein stability index,doa10∆,2.41 ± 0.053
same,protein stability index,pdr5∆,2.41 ± 0.06
same,protein stability index,san1∆,2.11 ± 0.051
same,protein stability index,ubr1∆,2.57 ± 0.049
MKMDKSPTESYSDIGGL [RPT2],protein stability index,doa10∆,3.21 ± 0.096
same,protein stability index,pdr5∆,3.4 ± 0.096
same,protein stability index,san1∆,3.38 ± 0.055
same,protein stability index,ubr1∆,3.05 ± 0.059
MKPEVEQELAHILLTEL [FAS2],protein stability index,doa10∆,3.006 ± 0.028
same,protein stability index,pdr5∆,2.988 ± 0.028
same,protein stability index,san1∆,2.753 ± 0.025
same,protein stability index,ubr1∆,2.722 ± 0.024
MKPSDNISTNTNIHEPQ [SSN2],protein stability index,doa10∆,3.19 ± 0.042
same,protein stability index,pdr5∆,3.08 ± 0.051
same,protein stability index,san1∆,3.1 ± 0.042
same,protein stability index,ubr1∆,3.06 ± 0.052
MKVEIDSFSGAKIYPGR [RPL24A],protein stability index,doa10∆,3.35 ± 0.072
same,protein stability index,pdr5∆,3.45 ± 0.12
same,protein stability index,san1∆,3.25 ± 0.08
same,protein stability index,ubr1∆,3.22 ± 0.1
MKWDFAKDIKGYGTQKI [PRE4],protein stability index,doa10∆,2.15 ± 0.064
same,protein stability index,pdr5∆,1.85 ± 0.057
same,protein stability index,san1∆,1.84 ± 0.12
same,protein stability index,ubr1∆,1.4 ± 0.048
MKWSAIPFQTLYRSIES [YJL039C/NUP192],protein stability index,doa10∆,1.53 ± 0.046
same,protein stability index,pdr5∆,1.91 ± 0.058
same,protein stability index,san1∆,1.7 ± 0.11
same,protein stability index,ubr1∆,1.91 ± 0.031
MKYIQTEQQIEVPEGVT [RPL9A],protein stability index,doa10∆,2.54 ± 0.089
same,protein stability index,pdr5∆,2.75 ± 0.082
same,protein stability index,san1∆,2.83 ± 0.11
same,protein stability index,ubr1∆,2.77 ± 0.053
MKYLAAYLLLNAAGNTP [RPP2A],protein stability index,doa10∆,1.88 ± 0.031
same,protein stability index,pdr5∆,2.05 ± 0.033
same,protein stability index,san1∆,1.9 ± 0.05
same,protein stability index,ubr1∆,2.32 ± 0.036
MKYLAAYLLLVQGGNAA [RPP2B],protein stability index,doa10∆,1.53 ± 0.051
same,protein stability index,pdr5∆,1.78 ± 0.038
same,protein stability index,san1∆,1.78 ± 0.069
same,protein stability index,ubr1∆,2 ± 0.065
MLASQANGGSTIISPHK [DSN1],protein stability index,doa10∆,3.42 ± 0.17
same,protein stability index,pdr5∆,3.43 ± 0.14
same,protein stability index,san1∆,3.45 ± 0.073
same,protein stability index,ubr1∆,3.28 ± 0.15
MLCTADTPEGEACGLVK [RET1],protein stability index,doa10∆,1.47 ± 0.1
same,protein stability index,pdr5∆,1.77 ± 0.14
MLLEEQLEYKRGEIREI [MED7],protein stability index,pdr5∆,2.92 ± 0.28
same,protein stability index,san1∆,2.69 ± 0.29
MLLGTDLCSLKPYVDRF [DIS3],protein stability index,doa10∆,2.62 ± 0.06
same,protein stability index,pdr5∆,2.68 ± 0.066
same,protein stability index,san1∆,2.66 ± 0.067
same,protein stability index,ubr1∆,2.92 ± 0.052
MLLLNDSVENSSNILED [SRB8],protein stability index,doa10∆,2.65 ± 0.078
same,protein stability index,pdr5∆,2.57 ± 0.078
same,protein stability index,san1∆,2.58 ± 0.065
same,protein stability index,ubr1∆,2.38 ± 0.061
MLMSKIGDVDGLIVNPV [POP5],protein stability index,doa10∆,2.57 ± 0.051
same,protein stability index,pdr5∆,2.58 ± 0.056
same,protein stability index,san1∆,2.47 ± 0.041
same,protein stability index,ubr1∆,2.42 ± 0.04
MLSILEIFKKGYIKNNK [POP6],protein stability index,doa10∆,2.63 ± 0.11
same,protein stability index,pdr5∆,2.84 ± 0.091
same,protein stability index,san1∆,3 ± 0.097
same,protein stability index,ubr1∆,3.08 ± 0.1
MLWNLAAKKAMYTLSAQ [ASC1],protein stability index,doa10∆,2.79 ± 0.069
same,protein stability index,pdr5∆,2.45 ± 0.062
same,protein stability index,san1∆,2.06 ± 0.073
same,protein stability index,ubr1∆,2.18 ± 0.077
MMENYQNISPVYSVDPL [PRP8],protein stability index,doa10∆,2.08 ± 0.049
same,protein stability index,pdr5∆,1.88 ± 0.058
same,protein stability index,san1∆,2.21 ± 0.064
same,protein stability index,ubr1∆,1.74 ± 0.044
MMMQQQLKNVQLDSYLV [MED2],protein stability index,doa10∆,2.21 ± 0.037
same,protein stability index,pdr5∆,2.45 ± 0.061
same,protein stability index,san1∆,1.69 ± 0.079
same,protein stability index,ubr1∆,2.17 ± 0.032
MNGNTNANTVFAGSNNQ [YOR098C/NUP1],protein stability index,doa10∆,2.63 ± 0.12
same,protein stability index,pdr5∆,3.27 ± 0.12
same,protein stability index,san1∆,3.31 ± 0.16
same,protein stability index,ubr1∆,3.26 ± 0.085
MNGRSLTYAQQQLNKQR [SNF6],protein stability index,doa10∆,3.28 ± 0.26
same,protein stability index,pdr5∆,3.36 ± 0.14
same,protein stability index,san1∆,3.02 ± 0.15
same,protein stability index,ubr1∆,3.23 ± 0.15
MNKDQAEKYQERSLRQK [SNM1],protein stability index,doa10∆,3.3 ± 0.089
same,protein stability index,pdr5∆,3.25 ± 0.089
same,protein stability index,san1∆,3.35 ± 0.069
same,protein stability index,ubr1∆,3.53 ± 0.093
MPPKKSWRNITNLSGGE [SMC4],protein stability index,doa10∆,2.69 ± 0.12
same,protein stability index,pdr5∆,2.85 ± 0.14
same,protein stability index,san1∆,2.64 ± 0.12
same,protein stability index,ubr1∆,2.96 ± 0.1
MPPKQQLSKAAKAAAAL [RPS25A],protein stability index,doa10∆,1.73 ± 0.048
same,protein stability index,pdr5∆,1.87 ± 0.05
same,protein stability index,san1∆,1.76 ± 0.062
same,protein stability index,ubr1∆,1.83 ± 0.042
MPQSGTGVSVEAVDDVF [RPN11],protein stability index,doa10∆,3.35 ± 0.11
same,protein stability index,pdr5∆,3.12 ± 0.11
same,protein stability index,san1∆,3 ± 0.092
same,protein stability index,ubr1∆,3.19 ± 0.051
MPRAPRTYSKTYSTPKR [RPS9A],protein stability index,doa10∆,2.3 ± 0.064
same,protein stability index,pdr5∆,2.45 ± 0.069
same,protein stability index,san1∆,2.68 ± 0.053
same,protein stability index,ubr1∆,2.62 ± 0.054
